US20230346960A1
No end group written: not given here.

Molecular target: collagen IV/laminin (2% reduced growth factor Matrigel, Corning #354230)
Test: plate binding assay, biotinylated molecule on Matrigel-coated plate, streptavidin-HRP, absorbance 450 nm

B1: DS-SILY4 (biotinylated; dermatan sulfate backbone with 4 SILY peptide substitutions per DS) (peptide)
peptide: RRANAALKAGELYKSILYGSG
modifications: not fully specified (C-terminus); also: about 4 peptides per dermatan sulfate, one equivalent N-terminally biotinylated SILY-hydrazide also conjugated
Q: B1 was tested. Which binding capacity did it give?
A: 1.1 AU
